Measured values from paper PMC12134289 (Nature Communications, 2025).

Biological target: T1, extended S2 fusion intermediate of the SARS-CoV-2 spike (after S1 dissociation) (SARS-CoV-2, Victoria (probably …, UniProt P0DTC2, strain))
T1 construct: A conformational and proteolytic state of m1, seen between the virion and ACE2VLP membranes; also called extended intermediate; extended S2 intermediate
Experiment: cryo-electron tomography; virions pre-incubated with WS6 (200 ug/ml, 1 h, 37 °C), then ACE2VLPs and trypsin for 30 min at 37 °C, PFA-fixed
Conditions: one partner purified

B1: WS6 S2 stem-helix broadly neutralizing antibody (antibody, V domains shown)
VH: EVQFQQSGTVLARPGASVKMSCKASGYTFTNYWIHWVKQRPGQGLEYIGGTYPGNGDTTYNQKFKGKAKVTAVTPTSTAYMDLSSLTNEDSAVYYCTRTGSYFDYWGQGTTLTVSS
VL: QIVLTQSPAIMSASPGEKVTISCSATSSVSYIYWYQQRPGSSPKPWIYRTSNLASGVPVRFSGSGSGTSYSLTISNMEAEDAATYYCQQYQSYPPTFGAGTKLELK
notes: mouse-derived antibody; Whole antibody with two arms was used (200 ug/ml in PBS); also called WS6 S2 antibody; spike stalk antibody WS6; copies: 2 + 2
- binding result: binds
